The source of these data is paper PMC8152469.

In the test the target is MobK-6His (Klebsiella pneumoniae (plasmid pIGRK)). The experiment in a line: cross-linking; about 400 ng MobK-6His incubated with increasing glutaraldehyde (0%, 0.001%, 0.0025%, 0.005%, 0.025%, 0.05%); SDS-PAGE and Western blot with anti-6His antibody; monomer to dimer. In general terms: In western blotting, separated proteins are transferred to a membrane and probed.

The stoichiometry N is a count of units in the complex or per binding partner. On to MobK-6His (enzyme), for which the stoichiometry N was found to be 2.
